# Measured values published in IntAct's records for PubMed 23892456.
# B1: Homeobox protein NANOG (Mus musculus), Q80Z64 (parent)
# chain: MSVGLPGPHSLPSSEEASNSGNASSMPAVFHPENYSCLQGSATEMLCTEAASPRPSSEDLPLQGSPDSSTSPKQKLSSPEADKGPEEEENKVLARKQKMRTVFSQAQLCALKDRFQKQKYLSLQQMQELSSILNLSYKQVKTWFQNQRMKCKRWQKNQWLKTSNGLIQKGSAPVEYPSIHCSYPQGYLVNASGSLSMWGSQTWTNPTWSSQTWTNPTWNNQTWTNPTWSSQAWTAQSWNGQPWNAAPLHNFGEDFLQPYVQLQQNFSASDLEVNLEATRESHAHFSTPQALELFLNYSVTPPGEI
# Variants of: B1
# Details: with sox2_mouse Sox2, P48432
# Sequence of sox2_mouse Sox2, P48432 (P48432 whole entry): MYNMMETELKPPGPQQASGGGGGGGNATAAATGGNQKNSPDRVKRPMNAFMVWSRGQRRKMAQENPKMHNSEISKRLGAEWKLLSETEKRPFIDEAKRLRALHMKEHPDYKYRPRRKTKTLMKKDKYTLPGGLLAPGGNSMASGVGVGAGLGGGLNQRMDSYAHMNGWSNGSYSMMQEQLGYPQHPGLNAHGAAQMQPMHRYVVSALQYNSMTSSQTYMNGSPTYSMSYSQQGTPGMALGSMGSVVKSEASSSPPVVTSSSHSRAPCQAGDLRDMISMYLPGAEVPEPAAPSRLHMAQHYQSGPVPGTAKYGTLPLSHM
row,Variant,effect of a mutation on the interaction
1,W198A;W203A;W208A;W213A;W218A;W223A;W228A;W233A;W238A;W243A,disrupting interaction
